The values that follow come from PMC3463355.

Data set [1] concerns the target Nuc207, mononucleosome on 207-bp 601 DNA as used for SEC-MALS. As to the kind of experiment: SEC-MALS. (Size exclusion chromatography separates by hydrodynamic size, large species first.)
Data set [2] addresses Nuc165, unlabeled mononucleosome on 165-bp 601 DNA. As to the kind of experiment: SEC-MALS.
Data set [3] concerns the target N-parp (N-terminal half of PARP-1, amino acids 1-486) (human) (UniProt P09874). Briefly: FRET or BRET. (In general: BRET reads energy transfer from a luciferase to a nearby fluorophore.)
Data set [4] has as its target N-parp (Zn1-Zn3 and BRCT) (UniProt P09874). As to the kind of experiment: HI-FI FRET.
The target in data set [5] is PARP-1 (full-length) V762A (human) (UniProt P09874). Briefly: HI-FI FRET.
Data set [6] has as its target full-length human PARP-1 [change] (human) (UniProt P09874). As to the kind of experiment: FRET or BRET.
In data set [7] the target is nucleosome (of the N-parp/nucleosome complexes, data not shown). As to the kind of experiment: SEC-MALS.

Chain of PARP-1 (full-length) V762A (human) (P09874 whole entry V762A): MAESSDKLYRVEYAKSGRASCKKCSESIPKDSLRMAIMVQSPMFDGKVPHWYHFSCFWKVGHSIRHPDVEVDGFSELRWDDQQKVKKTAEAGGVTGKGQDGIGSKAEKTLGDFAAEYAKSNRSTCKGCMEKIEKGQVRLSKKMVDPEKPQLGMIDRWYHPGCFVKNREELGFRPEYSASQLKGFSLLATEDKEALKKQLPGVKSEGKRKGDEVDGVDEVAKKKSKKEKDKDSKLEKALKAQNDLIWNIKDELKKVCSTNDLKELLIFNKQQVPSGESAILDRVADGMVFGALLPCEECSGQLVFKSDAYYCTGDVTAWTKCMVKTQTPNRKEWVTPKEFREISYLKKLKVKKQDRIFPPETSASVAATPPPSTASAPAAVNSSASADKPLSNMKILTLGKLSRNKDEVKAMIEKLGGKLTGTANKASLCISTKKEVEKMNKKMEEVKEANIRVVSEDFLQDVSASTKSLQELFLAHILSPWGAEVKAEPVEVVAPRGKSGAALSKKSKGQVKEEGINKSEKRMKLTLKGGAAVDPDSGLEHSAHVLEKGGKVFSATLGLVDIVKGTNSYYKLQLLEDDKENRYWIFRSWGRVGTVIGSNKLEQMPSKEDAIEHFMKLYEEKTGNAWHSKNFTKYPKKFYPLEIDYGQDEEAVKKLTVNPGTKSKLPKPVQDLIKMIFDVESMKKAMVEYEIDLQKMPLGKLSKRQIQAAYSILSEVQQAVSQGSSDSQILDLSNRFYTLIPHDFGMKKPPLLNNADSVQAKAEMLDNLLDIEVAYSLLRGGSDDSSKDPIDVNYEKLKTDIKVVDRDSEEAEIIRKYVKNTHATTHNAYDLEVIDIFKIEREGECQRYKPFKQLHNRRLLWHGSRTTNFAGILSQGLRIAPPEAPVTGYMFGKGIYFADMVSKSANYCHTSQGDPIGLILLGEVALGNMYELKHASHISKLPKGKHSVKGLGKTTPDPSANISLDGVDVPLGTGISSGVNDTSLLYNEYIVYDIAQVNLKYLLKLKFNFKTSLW
Chain of N-parp (Zn1-Zn3 and BRCT) (P09874 1-486): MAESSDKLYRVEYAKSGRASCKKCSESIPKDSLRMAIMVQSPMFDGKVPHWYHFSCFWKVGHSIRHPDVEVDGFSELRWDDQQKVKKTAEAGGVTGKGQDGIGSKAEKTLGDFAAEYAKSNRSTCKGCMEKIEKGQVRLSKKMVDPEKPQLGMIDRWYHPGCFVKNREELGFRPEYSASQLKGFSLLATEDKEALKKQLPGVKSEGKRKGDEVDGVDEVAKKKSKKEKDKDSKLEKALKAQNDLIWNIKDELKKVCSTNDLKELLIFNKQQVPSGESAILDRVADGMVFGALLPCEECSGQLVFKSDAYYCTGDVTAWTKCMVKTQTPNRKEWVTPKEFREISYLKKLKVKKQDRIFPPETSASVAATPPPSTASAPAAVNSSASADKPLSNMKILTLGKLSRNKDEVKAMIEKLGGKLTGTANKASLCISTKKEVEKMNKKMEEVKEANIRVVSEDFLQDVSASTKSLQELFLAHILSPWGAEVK
Chain of N-parp (N-terminal half of PARP-1, amino acids 1-486) (human) (P09874 1-486): as above
Chain of full-length human PARP-1 [change] (human) (P09874 whole entry V762A): as the sequence (P09874 whole entry V762A) above
Chain of N-parp (N-terminal half of PARP-1, amino acids 1-486) (P09874 1-486): as the sequence (P09874 1-486) above

Turning to “full-length human PARP-1 [change] (from UniProt P09874) (enzyme)”, the stoichiometry N in data set [1] and in data set [2] was 1 throughout. “Nuc207, mononucleosome on 207-bp 601 DNA, labeled with ATTO 647N at histone H4 [change] (complex)”: the Kd (in general, the free concentration of one partner at which half of the binding sites on the other are occupied at equilibrium, for simple one-to-one binding) in data set [3] came out at 48.8 nM. Take Nuc207: the Kd in data set [4] was 48.8 nM; in data set [5], 1 nM. In the case of “Nuc165, mononucleosome on 165-bp 601 DNA, labeled with ATTO 647N at histone H4 [change] (complex)”, the Kd came out at 57.8 nM in data set [3] and 2.2 nM in data set [6]. Take “N-parp (N-terminal half of PARP-1, amino acids 1-486) (from UniProt P09874 1-486) (domain or fragment)”: in data set [7], the stoichiometry N (commonly a count of units in the complex or per binding partner) is 1. In the case of “Nuc147, mononucleosome on 147-bp 601 DNA, labeled with ATTO 647N at histone H4 [change] (complex)”, the Kd in data set [3] and in data set [6] was above 500 nM each time.

With Nuc165, the Kd was 57.8 nM in data set [4] and 2.2 nM in data set [5]. Taken in the same sequence, the figures for Nuc178 were 238 nM and 84.6 nM.
